In patent US20210206861A1 (SUNSHINE GUOJIAN PHARMACEUTICAL SHANGHAI, published 2021):

B1: 4-2-Chimeric-IgG1 (antibody, V domains shown)
VH: QVQLQQSGPELVKPGASVKISCTASGSTLTDDYINWVKQRPGRGLEWVGWIFPGNGNSYYNEKFKDKATLIVDKSSSTAYMLLSSLTSEDSAVYFCARGLVRYRALFDYWGQGTTLTVSS
VL: QIVLSQSPAILSASPGEKVTMTCRASSSINYMHWYQQKPGSSPKPWIYAASNLASGVPARFSGSGSGTSFSLTISRVEAEDAATYYCQQWSSYPITFGSGTKLEIK
notes: also called chimeric antibody 4-2-Chimeric-IgG1
B2: Dupilumab (antibody, V domains shown)
VH: EVQLVESGGGLEQPGGSLRLSCAGSGFTFRDYAMTWVRQAPGKGLEWVSSISGSGGNTYYADSVKGRFTISRDNSKNTLYLQMNSLRAEDTAVYYCAKDRLSITIRPRYYGLDVWGQGTTVTVSS
VL: DIVMTQSPLSLPVTPGEPASISCRSSQSLLYSIGYNYLDWYLQKSGQSPQLLIYLGSNRASGVPDRFSGSGSGTDFTLKISRVEAEDVGFYYCMQALQTPYTFGQGTKLEIKR
B3: 4-2-Humanized-IgG1 (antibody)
heavy: not shown
light: DIQMTQSPSSLSASVGDRVTITCRASSSINYMHWYQQKPGKAPKPWIYAASNLASGVPSRFSGSGSGTDFTLTISSLQPEDFATYYCQQWSSYPITFGQGTKVEIKRTVAAPSVFIFPPSDEQLKSGTASVVCLLNNFYPREAKVQWKVDNALQSGNSQESVTEQDSKDSTYSLSSTLTLSKADYEKHKVYACEVTHQGLSSPVTKSFNRGEC
notes: expressed in HEK293E; also called humanized antibody 4-2-Humanized-IgG1
B4: 4-2-Humanized-IgG4 (antibody)
heavy: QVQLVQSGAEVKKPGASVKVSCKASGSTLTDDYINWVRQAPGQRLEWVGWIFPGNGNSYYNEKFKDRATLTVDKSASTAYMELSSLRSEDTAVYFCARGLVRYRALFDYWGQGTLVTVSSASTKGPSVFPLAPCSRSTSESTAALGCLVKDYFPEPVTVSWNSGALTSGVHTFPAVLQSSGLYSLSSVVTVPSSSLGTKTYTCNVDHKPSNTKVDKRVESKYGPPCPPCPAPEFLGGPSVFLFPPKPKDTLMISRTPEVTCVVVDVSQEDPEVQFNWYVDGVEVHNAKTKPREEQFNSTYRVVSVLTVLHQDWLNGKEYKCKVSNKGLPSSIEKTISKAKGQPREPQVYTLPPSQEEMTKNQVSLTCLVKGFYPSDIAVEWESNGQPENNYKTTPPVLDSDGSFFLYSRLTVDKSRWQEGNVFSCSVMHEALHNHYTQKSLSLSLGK
light: B3 light
notes: also called 4-2-Hu-IgG4
B5: 4-2-Humanized-IgG1-SELF (antibody)
heavy: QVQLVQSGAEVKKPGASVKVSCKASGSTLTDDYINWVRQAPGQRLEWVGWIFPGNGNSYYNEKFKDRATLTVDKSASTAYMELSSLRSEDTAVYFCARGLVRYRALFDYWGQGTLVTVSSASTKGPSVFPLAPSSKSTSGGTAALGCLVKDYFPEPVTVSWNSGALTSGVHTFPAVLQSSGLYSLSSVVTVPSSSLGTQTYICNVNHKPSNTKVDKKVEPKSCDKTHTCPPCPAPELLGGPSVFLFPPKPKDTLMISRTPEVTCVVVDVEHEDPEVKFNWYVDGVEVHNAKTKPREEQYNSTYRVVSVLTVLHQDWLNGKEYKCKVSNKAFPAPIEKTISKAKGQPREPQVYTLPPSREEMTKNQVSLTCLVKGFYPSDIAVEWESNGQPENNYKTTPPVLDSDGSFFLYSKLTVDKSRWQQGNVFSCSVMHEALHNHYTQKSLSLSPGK
light: B3 light
notes: also called SELF mutant of anti-human IL-4R humanized antibody

The binders below were run against human IL-4R (human, UniProt P24394 26-825) (assay: cell-based or functional assay).

Binder | IC50 of inhibition of IL-4-induced TF-1 cell proliferation | IC50 of inhibition of IL-13-induced TF-1 cell proliferation | IC50 of inhibition of IL-4-induced CD23 expression by PBMC, first experiment | IC50 of inhibition of IL-4-induced CD23 expression by PBMC, second experiment | IC50 of inhibition of IL-4-induced IgE secretion by PBMC, first experiment | IC50 of inhibition of IL-4-induced IgE secretion by PBMC, second experiment | IC50 of inhibition of IL-4-induced TF-1 cell proliferation, first experiment | IC50 of inhibition of IL-4-induced TF-1 cell proliferation, second experiment | IC50 of inhibition of IL-4-induced TF-1 cell proliferation, third experiment
B1 | 0.225 µg/mL | 0.0816 µg/mL |  |  |  |  |  |  | 
B2 |  | 0.0738 µg/mL | 0.0909 µg/mL | 0.0206 µg/mL | 0.996 µg/mL | 0.189 µg/mL | 0.842 µg/mL | 0.616 µg/mL | 0.687 µg/mL
B3 |  | 0.0343 µg/mL | 0.0294 µg/mL | 0.00356 µg/mL | 0.448 µg/mL | 0.0613 µg/mL | 0.561 µg/mL | 0.427 µg/mL | 0.52 µg/mL
B4 | 2.78 µg/mL |  | 0.232 µg/mL | 0.034 µg/mL | 1.95 µg/mL | 0.413 µg/mL | 1.29 µg/mL | 1.11 µg/mL | 1.15 µg/mL
B5 | 0.292 µg/mL |  | 0.0074 µg/mL | 0.00049 µg/mL | 0.0508 µg/mL | 0.0266 µg/mL |  |  | 

These binders were tested against T1, IL-4R-ECD-FLAG (human, UniProt P24394 26-232) (assay: ELISA on coated IL-4R-ECD-FLAG (100 ng/ml), HRP goat anti-human secondary).
T1 construct: Expressed in HEK293, purified on an anti-FLAG column; also called IL-4R antigen; human IL-4R; not shown: FLAG tag added to the end of the IL-4R-ECD coding region

Binder | EC50
B1 | 0.0118 µg/mL
B3 | 0.0124 µg/mL

The binders below were run against T1, IL-4R-ECD-FLAG (assay: SPR, Biacore T200; antibody captured on Protein A/G CM5 chip, IL-4R-ECD-FLAG injected).
Protocol: Next cycle was repeated after eluting the chip with 6M guanidine hydrochloride regeneration buffer. The data was analyzed using Biacore T200 Evaluation Software.

Binder | Kd | koff | kon
B3 | 717 pM | 0.000133 s⁻¹ | 186000 M⁻¹ s⁻¹
B4 | 692 pM | 0.00013 s⁻¹ | 188000 M⁻¹ s⁻¹

The binders below were run against T2, Biotinated IL-4R-ECD-hFc (human, UniProt P24394 26-232, biotinylated with Biotin N-hydroxysuccinimide ester (sites not given)) (assay: blocking ELISA: coated IL-4-hFc (2000 ng/ml), biotinylated IL-4R-ECD-hFc (100 ng/ml) with antibody in dilution series, Streptavidin-HRP).
T2 construct: also called biotinylated IL-4R-ECD-hFc; not shown: hFc (IgG1) tag
Protocol: The plate was washed with phosphate buffer containing 0.05% Tween-20 (PBST) and blocked by adding PBST containing 1% bovine serum albumin to each well. Then the plate was washed with PBST. […] The plate was washed with PBST. Streptavidin-HRP which was diluted with PBST containing 1% BSA at a dilution ratio of 1:1000 was added at 100 μl/well and incubated at 37° C. for 30 min. Chromogenic solution (TMB substrate solution) was added at 100 μl/well, and incubated at room temperature for 1˜5 min; then 50 μl/well of the stop solution was added to stop the color reaction. OD450 values were read with a microplate reader and GraphPad Prism6 was used to analyze data, prepare graphs, and calculate IC50.

Binder | IC50
B3 | 0.138 µg/mL
B4 | 0.14 µg/mL
B5 | 0.144 µg/mL
